# Molecular target: prefusion-stabilized SARS-CoV S ectodomain trimer (SARS-CoV 2P S) (SARS-CoV Urbani (AAP13441), UniProt P59594, stabilised)
# Test: BLI
binder,measurement,value
"B6 monoclonal antibody (recombinant IgG with human constant regions) (antibody, V domains shown) VH: EVQLQQSGPVLVKPGASVRMSCKASGYTITDYYLNWVKQSHGKSLEWLGVLNPYSGGSLYSQTFKGKATLTVDRSSSTAYLELNSLTSEDSAVYYCARQLGRGNGLDYWGQGTSVTVSS VL: NIMMTQSPSSLAVSAGEKVTMSCKSSQSVLHSSDQKNYLAWYQQKPGQSPKLLIYWASTRESGVPDRFTGSGSGTDFTLTISSVQAEDLAVYFCHQYLSSYTFGGGTKLEIK",binding result,binds
